Test results: the supplement of paper PMC9116672
± gives the standard deviation of the averaged measurements or the uncertainty stated by the source.

Columns and labels:
[1] = duplex formation enthalpy ΔH (Van't Hoff fit of HRM Tm); higher = less exothermic duplex formation; details: temperature for dG: 50 °C, NaCl: 500 mM (unadjusted)
Outline: (§1)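 Melting ran from 37 to 97°C at 0.1°C/s on a LightCycler96, with duplexes annealed 1:1 from phosphodiester or mixed Rp/Sp phosphorothioate DNA strands at 1–20 μM (four replicates) in 1× NNE buffer (500 mM NaCl, pH 7.0) plus 1× EvaGreen. A linear Van't Hoff regression of 1/Tm, with Tm the peak of -dF/dT, against ln(CT/4) yields enthalpy, entropy and free energy, the values not salt-adjusted and the errors being fit standard deviations. Free energy values are extrapolated to 50°C.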

[2] = duplex melting temperature (HRM, EvaGreen); higher = more stable duplex
Outline: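 Complementary DNA strands, either phosphodiester or phosphorothioate (Rp/Sp mixtures), were annealed 1:1 at 25 μM and diluted to 1–20 μM duplex in NNE buffer (500 mM NaCl, pH 7.0) containing 1× EvaGreen. Fluorescence at 470/514 nm was recorded on a LightCycler96 during heating from 37°C to 97°C at 0.1°C/s. The instrument software took the melting temperature as the peak of the negative dF/dT curve. Of four replicates, any without a clear peak were dropped and the remainder averaged.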

[3] = duplex formation entropy ΔS (Van't Hoff fit of HRM Tm); higher = smaller entropy loss on duplex formation; details: temperature for dG: 50 °C, NaCl: 500 mM (unadjusted)
Outline: as §1

[4] = duplex formation free energy ΔG50 (Van't Hoff fit of HRM Tm); higher = less stable duplex; details: temperature for dG: 50 °C, NaCl: 500 mM (unadjusted)
Outline: as §1

[5] = backbone: PO-PO (both strands phosphodiester DNA)
[6] = backbone: PS-PO (listed strand fully phosphorothioate, complement phosphodiester)
[7] = backbone: PS-PS (both strands fully phosphorothioate)
[8] = duplex concentration 1 µM, backbone: PO-PO (both strands phosphodiester DNA)
[9] = duplex concentration 1 µM, backbone: PS-PO (listed strand fully phosphorothioate, complement phosphodiester)
[10] = duplex concentration 1 µM, backbone: PS-PS (both strands fully phosphorothioate)
[11] = duplex concentration 2.5 µM, backbone: PO-PO (both strands phosphodiester DNA)
[12] = duplex concentration 2.5 µM, backbone: PS-PO (listed strand fully phosphorothioate, complement phosphodiester)
[13] = duplex concentration 2.5 µM, backbone: PS-PS (both strands fully phosphorothioate)
[14] = duplex concentration 5 µM, backbone: PO-PO (both strands phosphodiester DNA)
[15] = duplex concentration 5 µM, backbone: PS-PO (listed strand fully phosphorothioate, complement phosphodiester)
[16] = duplex concentration 5 µM, backbone: PS-PS (both strands fully phosphorothioate)
[17] = duplex concentration 7.5 µM, backbone: PO-PO (both strands phosphodiester DNA)
[18] = duplex concentration 7.5 µM, backbone: PS-PO (listed strand fully phosphorothioate, complement phosphodiester)
[19] = duplex concentration 7.5 µM, backbone: PS-PS (both strands fully phosphorothioate)
[20] = duplex concentration 10 µM, backbone: PO-PO (both strands phosphodiester DNA)
[21] = duplex concentration 10 µM, backbone: PS-PO (listed strand fully phosphorothioate, complement phosphodiester)
[22] = duplex concentration 10 µM, backbone: PS-PS (both strands fully phosphorothioate)
[23] = duplex concentration 15 µM, backbone: PO-PO (both strands phosphodiester DNA)
[24] = duplex concentration 15 µM, backbone: PS-PO (listed strand fully phosphorothioate, complement phosphodiester)
[25] = duplex concentration 15 µM, backbone: PS-PS (both strands fully phosphorothioate)
[26] = duplex concentration 20 µM, backbone: PO-PO (both strands phosphodiester DNA)
[27] = duplex concentration 20 µM, backbone: PS-PO (listed strand fully phosphorothioate, complement phosphodiester)
[28] = duplex concentration 20 µM, backbone: PS-PS (both strands fully phosphorothioate)

Sequence | duplex formation enthalpy ΔH [1, 5] [kcal/mol] | duplex formation enthalpy ΔH [1, 6] [kcal/mol] | duplex formation enthalpy ΔH [1, 7] [kcal/mol] | duplex melting temperature [2, 8] [°C] | duplex melting temperature [2, 9] [°C] | duplex melting temperature [2, 10] [°C] | duplex melting temperature [2, 11] [°C] | duplex melting temperature [2, 12] [°C] | duplex melting temperature [2, 13] [°C] | duplex melting temperature [2, 14] [°C] | duplex melting temperature [2, 15] [°C] | duplex melting temperature [2, 16] [°C] | duplex melting temperature [2, 17] [°C] | duplex melting temperature [2, 18] [°C] | duplex melting temperature [2, 19] [°C] | duplex melting temperature [2, 20] [°C] | duplex melting temperature [2, 21] [°C] | duplex melting temperature [2, 22] [°C] | duplex melting temperature [2, 23] [°C] | duplex melting temperature [2, 24] [°C] | duplex melting temperature [2, 25] [°C] | duplex melting temperature [2, 26] [°C] | duplex melting temperature [2, 27] [°C] | duplex melting temperature [2, 28] [°C] | duplex formation entropy ΔS [3, 5] [cal/mol/K] | duplex formation entropy ΔS [3, 6] [cal/mol/K] | duplex formation entropy ΔS [3, 7] [cal/mol/K] | duplex formation free energy ΔG50 [4, 5] [kcal/mol] | duplex formation free energy ΔG50 [4, 6] [kcal/mol] | duplex formation free energy ΔG50 [4, 7] [kcal/mol]
CACAGCGACATGTATGG | -84.1 ± 2.5 | -83.1 ± 1.4 | -80 ± 3.5 | 66.351 ± 0.017 | 59.17 ± 0.49 | 51.1 ± 0.65 | 68.17 ± 0.38 | 61.71 ± 0.23 | 54.15 ± 0.059 | 70.03 ± 0.34 | 63.56 ± 0.32 | 56.02 ± 0.1 | 71.11 ± 0.17 | 64.61 ± 0.28 | 56.91 ± 0.12 | 72.07 ± 0.21 | 65.347 ± 0.065 | 57.68 ± 0.091 | 73.27 ± 0.14 | 66.45 ± 0.11 | 58.539 ± 0.051 | 74.18 ± 0.2 | 67.43 ± 0.1 | 59.3 ± 0.12 | -218 ± 7.4 | -220 ± 4.1 | -216 ± 10 | -13.7 ± 0.16 | -12.06 ± 0.059 | -10.12 ± 0.071
GTGAAACAATGCTGTAG | -76.6 ± 3 | -75.5 ± 2 | -72.1 ± 2 | 60.8 | – | 43.88 ± 0.29 | 62.87 ± 0.2 | 56.26 ± 0.25 | 46.82 ± 0.2 | 65.1 ± 0.46 | 58.51 ± 0.13 | 48.72 ± 0.15 | 66.14 ± 0.17 | 59.58 ± 0.12 | 49.72 ± 0.1 | 67.07 ± 0.17 | 60.43 ± 0.12 | 50.48 ± 0.19 | 68.31 ± 0.14 | 61.59 ± 0.25 | 51.63 ± 0.11 | 69.27 ± 0.11 | 62.36 ± 0.4 | 52.66 ± 0.18 | -199 ± 8.8 | -201 ± 6.2 | -197 ± 6.4 | -12.1 ± 0.14 | -10.63 ± 0.061 | -8.41 ± 0.018
AGGAGTGAATGAAATGG | -69.7 ± 2.4 | -78 ± 1.6 | -73.4 ± 2.2 | 59.4 | 54.5 | 43.7 ± 0.16 | 62.1 ± 0.68 | 57.08 ± 0.11 | 46.44 ± 0.17 | 64.64 ± 0.23 | 59.096 ± 0.041 | 48.39 ± 0.29 | 65.704 ± 0.056 | 60.13 ± 0.11 | 49.32 ± 0.19 | 66.73 ± 0.088 | 61.02 ± 0.073 | 50.27 ± 0.12 | 68.03 ± 0.15 | 62.13 ± 0.11 | 51.3 ± 0.13 | 69.03 ± 0.084 | 62.93 ± 0.16 | 52.15 ± 0.22 | -179 ± 7 | -208 ± 4.8 | -201 ± 6.7 | -11.71 ± 0.11 | -10.85 ± 0.05 | -8.33 ± 0.02
GCGGTTGGTGGCCAAC | -87 ± 3.6 | -80.6 ± 2.4 | -75.1 ± 2.4 | – | 63.49 ± 0.42 | 56.4 ± 0.12 | 72.845 ± 0.0061 | 65.54 ± 0.56 | 59.65 ± 0.13 | 74.66 ± 0.1 | 67.67 ± 0.49 | 61.64 ± 0.16 | 75.96 ± 0.21 | 68.96 ± 0.29 | 62.663 ± 0.048 | 76.8 ± 0.26 | 69.81 ± 0.25 | 63.516 ± 0.06 | 77.93 ± 0.21 | 71.07 ± 0.17 | 64.64 ± 0.11 | 78.54 ± 0.17 | 71.91 ± 0.09 | 65.39 ± 0.087 | -223 ± 10 | -209 ± 7.1 | -197 ± 7.2 | -14.9 ± 0.28 | -12.9 ± 0.13 | -11.29 ± 0.089
GAACCGTTGATGATCTC | -80.1 ± 1.6 | -78.8 ± 1.7 | -70.3 ± 2.3 | 63.4 | 54.79 ± 0.14 | 46.68 ± 0.22 | 65.33 ± 0.31 | 57.31 ± 0.16 | 49.91 ± 0.24 | 67.16 ± 0.13 | 59.39 ± 0.12 | 51.98 ± 0.084 | 68.29 ± 0.098 | 60.41 ± 0.13 | 53.01 ± 0.082 | 69.2 ± 0.096 | 61.285 ± 0.052 | 53.86 ± 0.097 | 70.38 ± 0.088 | 62.38 ± 0.1 | 54.9 ± 0.045 | 71.31 ± 0.079 | 63.117 ± 0.054 | 55.75 ± 0.06 | -208 ± 4.8 | -210 ± 5 | -189 ± 7.2 | -12.78 ± 0.09 | -10.93 ± 0.053 | -9.101 ± 0.027
ACTGTATCGCCCTA | -70.4 ± 6 | -56.7 ± 6.8 | -40.3 ± 2.8 | – | – | 43.6 ± 0.65 | 64.04 ± 0.18 | – | 47.26 ± 0.29 | 65.3 ± 0.12 | 57.4 ± 0.95 | 50.2 ± 0.33 | 66.7 ± 0.24 | 60.1 ± 0.84 | 51.8 ± 0.45 | 68.35 ± 0.2 | 61.56 ± 0.48 | 54.55 ± 0.45 | 69.55 ± 0.22 | 62.93 ± 0.27 | 57.15 ± 0.42 | 70.51 ± 0.2 | 63.73 ± 0.26 | 59.2 ± 0.59 | -181 ± 18 | -144 ± 20 | -97.5 ± 8.7 | -12 ± 0.31 | -10.2 ± 0.24 | -8.829 ± 0.042
